# pIC50: −log10 of the molar value. Values joined by “and” are separate entries in the source; they are usually repeats but may differ in a detail not shown here. Identical values can stand only once.
# Columns and labels:
# [1] = target: pathological hyperphosphorylated tau from human Alzheimer's disease brain, sarkosyl-insoluble P3 fraction (human) (UniProt P10636); assay: fluid phase MSD ELISA: inhibition of tau antigen capture
# [2] = target: pathological hyperphosphorylated tau from human Alzheimer's disease brain, sarkosyl-insoluble P3 fraction (human) (UniProt P10636); assay: fluid phase MSD ELISA: inhibition of AD-P3 tau antigen capture
# [3] = target: pathological hyperphosphorylated tau from human Alzheimer's disease brain, sarkosyl-insoluble P3 fraction (human) (UniProt P10636); assay: MSD, AD-P3 coated plate (FIG. 34); C10-2 3 ng/ml + PBS/0.1% BSA (no competitor)
# [4] = target: pathological hyperphosphorylated tau from human Alzheimer's disease brain, sarkosyl-insoluble P3 fraction (human) (UniProt P10636); assay: MSD, AD-P3 coated plate (FIG. 34); C10-2 10 ng/ml + PBS/0.1% BSA (no competitor)
# [5] = target: pathological hyperphosphorylated tau from human Alzheimer's disease brain, sarkosyl-insoluble P3 fraction (human) (UniProt P10636); assay: MSD, AD-P3 coated plate (FIG. 34); C10-2 30 ng/ml + PBS/0.1% BSA (no competitor)
# [6] = target: pathological hyperphosphorylated tau from human Alzheimer's disease brain, sarkosyl-insoluble P3 fraction (human) (UniProt P10636); assay: MSD, AD-P3 coated plate (FIG. 34); C10-2 100 ng/ml + PBS/0.1% BSA (no competitor)
# [7] = target: pathological hyperphosphorylated tau from human Alzheimer's disease brain, sarkosyl-insoluble P3 fraction (human) (UniProt P10636); assay: MSD, AD-P3 coated plate (FIG. 34); C10-2 300 ng/ml + PBS/0.1% BSA (no competitor)
# [8] = target: hyperphosphorylated tau phosphorylated at serine 396 in human Alzheimer brain (extracts and sections) (human) (UniProt P10636); assay: immunodepletion of Alzheimer brain extract; western blot; compared to hHel control antibody
# Chain of hyperphosphorylated tau phosphorylated at serine 396 in human Alzheimer brain (extracts and sections) (human) (P10636 other isoform, or with tags, fused parts or gaps limits assumed): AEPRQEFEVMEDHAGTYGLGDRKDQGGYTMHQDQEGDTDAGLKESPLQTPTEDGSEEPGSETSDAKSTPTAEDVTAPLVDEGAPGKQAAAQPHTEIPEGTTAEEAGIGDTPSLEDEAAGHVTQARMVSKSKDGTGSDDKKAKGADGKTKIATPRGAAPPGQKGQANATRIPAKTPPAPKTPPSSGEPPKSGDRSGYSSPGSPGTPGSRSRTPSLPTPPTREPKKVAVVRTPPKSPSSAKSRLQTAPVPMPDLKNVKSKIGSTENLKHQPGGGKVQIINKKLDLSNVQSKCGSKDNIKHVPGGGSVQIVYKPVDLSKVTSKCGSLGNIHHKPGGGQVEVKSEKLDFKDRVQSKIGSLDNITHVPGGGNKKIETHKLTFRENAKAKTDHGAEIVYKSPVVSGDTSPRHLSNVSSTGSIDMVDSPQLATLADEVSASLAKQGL
# [9] = target: pathological hyperphosphorylated tau from human Alzheimer's disease brain, sarkosyl-insoluble P3 fraction (human) (UniProt P10636); assay: MSD, AD-P3 coated plate (FIG. 34); C10-2 1000 ng/ml + PBS/0.1% BSA (no competitor)
# [10] = target: pathological hyperphosphorylated tau from human Alzheimer's disease brain, sarkosyl-insoluble P3 fraction (human) (UniProt P10636); assay: fluid phase MSD ELISA: antibody mixed with AD P3 in solution, capture on C10-2 coated plates
# [11] = target: pathological hyperphosphorylated tau from human Alzheimer's disease brain, sarkosyl-insoluble P3 fraction (human) (UniProt P10636); assay: fluid phase inhibition of Ptau antigen capture in C10-2 coated plate (comparison with mD1.2)
# [12] = target: pathological hyperphosphorylated tau from human Alzheimer's disease brain, sarkosyl-insoluble P3 fraction (human) (UniProt P10636); assay: MSD, AD-P3 coated plate (FIG. 34); C10-2 10000 ng/ml + PBS/0.1% BSA (no competitor)
# [13] = target: hyperphosphorylated tau phosphorylated at serine 396 in human Alzheimer brain (extracts and sections) (human) (UniProt P10636); assay: immunodepletion of Alzheimer brain extract with antibody on Protein G Dynabeads; western blot
# [14] = target: pathological hyperphosphorylated tau from human Alzheimer's disease brain, sarkosyl-insoluble P3 fraction (human) (UniProt P10636); assay: MSD ELISA on immobilised P3 tau; ratio of binding to AD over healthy control at saturation
# [15] = target: pathological hyperphosphorylated tau from human Alzheimer's disease brain, sarkosyl-insoluble P3 fraction (human) (UniProt P10636); assay: fluid phase inhibition of p-tau antigen capture in mC10-2 coated plate (comparison with PHF-13)
# [16] = target: pathological hyperphosphorylated tau from human Alzheimer's disease brain, sarkosyl-insoluble P3 fraction (human) (UniProt P10636); assay: MSD, AD-P3 coated plate (FIG. 34); C10-2 3 ng/ml + 10 µM tau peptide as competitor
# [17] = target: pathological hyperphosphorylated tau from human Alzheimer's disease brain, sarkosyl-insoluble P3 fraction (human) (UniProt P10636); assay: MSD, AD-P3 coated plate (FIG. 34); C10-2 10 ng/ml + 10 µM tau peptide as competitor
# [18] = target: pathological hyperphosphorylated tau from human Alzheimer's disease brain, sarkosyl-insoluble P3 fraction (human) (UniProt P10636); assay: MSD, AD-P3 coated plate (FIG. 34); C10-2 30 ng/ml + 10 µM tau peptide as competitor
# [19] = target: pathological hyperphosphorylated tau from human Alzheimer's disease brain, sarkosyl-insoluble P3 fraction (human) (UniProt P10636); assay: MSD, AD-P3 coated plate (FIG. 34); C10-2 100 ng/ml + 10 µM tau peptide as competitor
# [20] = target: pathological hyperphosphorylated tau from human Alzheimer's disease brain, sarkosyl-insoluble P3 fraction (human) (UniProt P10636); assay: MSD, AD-P3 coated plate (FIG. 34); C10-2 300 ng/ml + 10 µM tau peptide as competitor
# [21] = target: pathological hyperphosphorylated tau from human Alzheimer's disease brain, sarkosyl-insoluble P3 fraction (human) (UniProt P10636); assay: MSD, AD-P3 coated plate (FIG. 34); C10-2 1000 ng/ml + 10 µM tau peptide as competitor
# [22] = target: pathological hyperphosphorylated tau from human Alzheimer's disease brain, sarkosyl-insoluble P3 fraction (human) (UniProt P10636); assay: MSD, AD-P3 coated plate (FIG. 34); C10-2 10000 ng/ml + 10 µM tau peptide as competitor
# [23] = target: hyperphosphorylated tau phosphorylated at serine 396 in human Alzheimer brain (extracts and sections) (human) (UniProt P10636); assay: immunodepletion of Alzheimer brain extract; western blot
# [24] = target: total tau in Alzheimer brain extract (human) (UniProt P10636); assay: as above
# Chain of total tau in Alzheimer brain extract (human) (P10636 other isoform, or with tags, fused parts or gaps limits assumed): as above
# [25] = target: hyper-phosphorylated P301L mutant human 4R0N tau from rTg4510 mouse brain (64 and 70 kDa species; P3 / brain extract) (human) (UniProt P10636); assay: MSD ELISA on immobilised P3; ratio of binding to Tg4510 over wt mouse material
# Chain of hyper-phosphorylated P301L mutant human 4R0N tau from rTg4510 mouse brain (64 and 70 kDa species; P3 / brain extract) (human) (P10636 other isoform, or with tags, fused parts or gaps P301L P301L): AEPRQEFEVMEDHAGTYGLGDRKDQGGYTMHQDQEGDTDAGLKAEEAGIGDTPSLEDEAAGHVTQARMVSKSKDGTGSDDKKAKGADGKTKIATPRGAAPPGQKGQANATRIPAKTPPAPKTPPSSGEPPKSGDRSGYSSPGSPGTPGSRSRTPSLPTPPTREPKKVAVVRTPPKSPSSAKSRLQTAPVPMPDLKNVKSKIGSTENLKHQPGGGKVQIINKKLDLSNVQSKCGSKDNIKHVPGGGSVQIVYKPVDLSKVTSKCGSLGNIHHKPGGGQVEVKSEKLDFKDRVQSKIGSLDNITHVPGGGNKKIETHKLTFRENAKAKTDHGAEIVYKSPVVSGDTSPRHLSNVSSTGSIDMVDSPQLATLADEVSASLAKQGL
# [26] = target: aggregated Tau in Alzheimer brain extract (Cisbio assay) (human) (UniProt P10636); assay: immunodepletion of AD extract; Cisbio tau aggregation assay; in comparison to hHel antibody
# Chain of aggregated Tau in Alzheimer brain extract (Cisbio assay) (human) (P10636 other isoform, or with tags, fused parts or gaps limits assumed): as the sequence (P10636 other isoform, or with tags, fused parts or gaps limits assumed) above
# [27] = target: pathological hyperphosphorylated tau from human Alzheimer's disease brain, sarkosyl-insoluble P3 fraction (human) (UniProt P10636); assay: fluid phase inhibition of p-tau antigen capture in mC10-2 coated plate
# [28] = target: pathological hyperphosphorylated tau from human Alzheimer's disease brain, sarkosyl-insoluble P3 fraction (human) (UniProt P10636); assay: MSD, AD-P3 coated plate (FIG. 34); PHF 13 at '1000' (unit inferred) + PBS/0.1% BSA (no competitor)
# [29] = target: pathological hyperphosphorylated tau from human Alzheimer's disease brain, sarkosyl-insoluble P3 fraction (human) (UniProt P10636); assay: MSD, AD-P3 coated plate (FIG. 34); PHF 13 at '3000' (unit inferred) + PBS/0.1% BSA (no competitor)
# [30] = target: pathological hyperphosphorylated tau from human Alzheimer's disease brain, sarkosyl-insoluble P3 fraction (human) (UniProt P10636); assay: MSD, AD-P3 coated plate (FIG. 34); PHF 13 at '10000' (unit inferred) + PBS/0.1% BSA (no competitor)
# [31] = target: pathological hyperphosphorylated tau from human Alzheimer's disease brain, sarkosyl-insoluble P3 fraction (human) (UniProt P10636); assay: MSD, AD-P3 coated plate (FIG. 34); PHF 13 at '30000' (unit inferred) + PBS/0.1% BSA (no competitor)
# [32] = target: pathological hyperphosphorylated tau from human Alzheimer's disease brain, sarkosyl-insoluble P3 fraction (human) (UniProt P10636); assay: MSD, AD-P3 coated plate (FIG. 34); PHF 13 at '100000' (unit inferred) + PBS/0.1% BSA (no competitor)
# [33] = target: pathological hyperphosphorylated tau from human Alzheimer's disease brain, sarkosyl-insoluble P3 fraction (human) (UniProt P10636); assay: MSD, AD-P3 coated plate (FIG. 34); PHF 13 at '300000' (unit inferred) + PBS/0.1% BSA (no competitor)
# [34] = target: pathological hyperphosphorylated tau from human Alzheimer's disease brain, sarkosyl-insoluble P3 fraction (human) (UniProt P10636); assay: MSD, AD-P3 coated plate (FIG. 34); PHF 13 at '1000000' (unit inferred) + PBS/0.1% BSA (no competitor)
# [35] = target: pathological hyperphosphorylated tau from human Alzheimer's disease brain, sarkosyl-insoluble P3 fraction (human) (UniProt P10636); assay: MSD, AD-P3 coated plate (FIG. 34); PHF 13 at '1000' (unit inferred) + 10 µM tau peptide as competitor
# [36] = target: pathological hyperphosphorylated tau from human Alzheimer's disease brain, sarkosyl-insoluble P3 fraction (human) (UniProt P10636); assay: MSD, AD-P3 coated plate (FIG. 34); PHF 13 at '3000' (unit inferred) + 10 µM tau peptide as competitor
# [37] = target: pathological hyperphosphorylated tau from human Alzheimer's disease brain, sarkosyl-insoluble P3 fraction (human) (UniProt P10636); assay: MSD, AD-P3 coated plate (FIG. 34); PHF 13 at '30000' (unit inferred) + 10 µM tau peptide as competitor
# [38] = target: pathological hyperphosphorylated tau from human Alzheimer's disease brain, sarkosyl-insoluble P3 fraction (human) (UniProt P10636); assay: MSD, AD-P3 coated plate (FIG. 34); PHF 13 at '100000' (unit inferred) + 10 µM tau peptide as competitor
# [39] = target: pathological hyperphosphorylated tau from human Alzheimer's disease brain, sarkosyl-insoluble P3 fraction (human) (UniProt P10636); assay: MSD, AD-P3 coated plate (FIG. 34); PHF 13 at '300000' (unit inferred) + 10 µM tau peptide as competitor
# [40] = target: pathological hyperphosphorylated tau from human Alzheimer's disease brain, sarkosyl-insoluble P3 fraction (human) (UniProt P10636); assay: MSD, AD-P3 coated plate (FIG. 34); PHF 13 at '1000000' (unit inferred) + 10 µM tau peptide as competitor
# [41] = target: pathological hyperphosphorylated tau from human Alzheimer's disease brain, sarkosyl-insoluble P3 fraction (human) (UniProt P10636); assay: MSD, AD-P3 coated plate (FIG. 34); PHF 13 at '10000M' (unit not explained) + 10 µM tau peptide as competitor
# [42] = target: normal P301L mutant human 4R0N tau from rTg4510 mouse brain (55 kDa band) (human) (UniProt P10636); assay: immunodepletion of rTg4510 brain extracts; western blot quantification (FIG. 14)
# Chain of normal P301L mutant human 4R0N tau from rTg4510 mouse brain (55 kDa band) (human) (P10636 other isoform, or with tags, fused parts or gaps P301L P301L): as the sequence (P10636 other isoform, or with tags, fused parts or gaps P301L P301L) above
# Chain of HJ8.5 (antibody) (VH): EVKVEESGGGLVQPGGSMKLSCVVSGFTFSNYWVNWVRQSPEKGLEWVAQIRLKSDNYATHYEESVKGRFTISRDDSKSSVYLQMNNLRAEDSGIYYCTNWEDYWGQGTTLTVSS
# Chain of HJ8.5 (antibody) (VL): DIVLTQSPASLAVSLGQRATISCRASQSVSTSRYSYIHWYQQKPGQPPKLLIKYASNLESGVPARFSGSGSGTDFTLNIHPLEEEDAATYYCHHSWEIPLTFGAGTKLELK
# Chain of pathological hyperphosphorylated tau from human Alzheimer's disease brain, sarkosyl-insoluble P3 fraction (human) (P10636 other isoform, or with tags, fused parts or gaps limits assumed): as the sequence (P10636 other isoform, or with tags, fused parts or gaps limits assumed) above
substance,measurement,setting,value
Antibody C10-2 (murine),pIC50,[1],6.49
same,pIC50,[2],8.52
same,mean Signal,[3],1880 signal
same,signal,[3],1890 signal and 1870 signal
same,mean Signal,[4],5720 signal
same,signal,[4],5860 signal and 5580 signal
same,mean Signal,[5],11900 signal
same,signal,[5],12000 signal and 11800 signal
same,mean Signal,[6],21800 signal
same,signal,[6],21900 signal and 21700 signal
same,mean Signal,[7],30400 signal
same,signal,[7],30300 signal and 30500 signal
same,percent removed by immunodepletion,[8],93%
same,mean Signal,[9],38500 signal
same,signal,[9],38200 signal and 38800 signal
same,pIC50,[10],8.52
same,pIC50,[11],7.70 to 8.00
same,mean Signal,[12],51200 signal
same,signal,[12],51300 signal and 51100 signal
same,percent removed by immunodepletion,[13],90%
same,AD/ctrl,[14],> 100 fold
same,pIC50,[15],7.70 to 8.00
same,mean Signal,[16],366 signal
same,signal,[16],384 signal and 348 signal
same,mean Signal,[17],383 signal
same,signal,[17],398 signal and 367 signal
same,mean Signal,[18],345 signal
same,signal,[18],384 signal and 306 signal
same,mean Signal,[19],357 signal
same,signal,[19],401 signal and 313 signal
same,mean Signal,[20],407 signal
same,signal,[20],434 signal and 379 signal
same,mean Signal,[21],451 signal
same,signal,[21],462 signal and 439 signal
same,mean Signal,[22],870 signal
same,signal,[22],920 signal and 820 signal
HJ8.5 (antibody),percent removed by immunodepletion,[23],88%
same,percent removed by immunodepletion,[24],89%
same,TG/wt,[25],51 fold
same,percent of aggregated Tau removed,[26],99%
same,AD/ctrl,[14],3 fold
PHF13 (commercially available antibody for Tau phosphorylated at Ser 396),pIC50,[27],6.00 to 6.30
same,mean Signal,[28],12600 signal
same,signal,[28],13700 signal and 11600 signal
same,mean Signal,[29],5790 signal
same,signal,[29],6130 signal and 5460 signal
same,mean Signal,[30],2880 signal
same,signal,[30],2900 signal and 2860 signal
same,mean Signal,[31],1580 signal
same,signal,[31],1660 signal and 1500 signal
same,mean Signal,[32],852 signal
same,signal,[32],856 signal and 847 signal
same,mean Signal,[33],560 signal
same,signal,[33],568 signal and 551 signal
same,mean Signal,[34],335 signal
same,signal,[34],358 signal and 312 signal
same,mean Signal,[35],6900 signal
same,signal,[35],7540 signal and 6250 signal
same,mean Signal,[36],2180 signal
same,signal,[36],2280 signal and 2080 signal
same,mean Signal,[37],481 signal
same,signal,[37],472 signal and 490 signal
same,mean Signal,[38],355 signal
same,signal,[38],370 signal and 340 signal
same,mean Signal,[39],299 signal
same,signal,[39],305 signal and 292 signal
same,mean Signal,[40],280 signal
same,signal,[40],284 signal and 276 signal
same,mean Signal,[41],953 signal
same,signal,[41],1020 signal and 886 signal
"Tau5 (commercial total Tau antibody, Invitrogen)",percent reduction of the 55 kDa band,[42],74%

# Reference: US20170015738A1
